{"source": "paper PMC5404824", "about": "“Engineering Nucleotide Specificity of Succinyl-CoA Synthetase in Blastocystis: The Emerging Role of Gatekeeper Residues” (Biochemistry, 2016)", "substrate": "Nc1ncnc2c1ncn2[C@@H]1O[C@H](COP(=O)(O)OP(=O)(O)OP(=O)(O)O)[C@@H](O)[C@H]1O", "experiment": "purified protein", "conditions": "129 μM CoA, 10 mM succinate, 50 mM KCl, 10 mM MgCl2, 50 mM Tris-HCl pH 7.4, 30 nM enzyme", "data": [{"protein": "Blastocystis SCS (succinyl-CoA synthetase, SCSα + SCSβ) (Blastocystis sp. ATCC 50177/Nand II) (protein) LNIHEWQSKQLIQKYGGRAQSGEVAFSPERSRDIAKKLWNQFPGCKFVVKAQVLAGGRGKGHWEHGMQGGVKLAKTPEEVYEIANEMIGHKLITKQTGAKGINCNKVMVCGAVKILKEFYLSILLDRAMGCPVIIATSQGGMGIEEVAQKCPECLFKVPISVKNGPTNEQLVKLAKDLGLEGDLVQDCVDNVKALYQVFDKCDSTMVEINPLGVIETPTDEKVICCLDAKIAFDKDAAFRQKEIFALRDKSREDPRDVRASLADLNYVGLDGDIGCMVNGAGLAMATMDTINYFGGSAANFLDVGGNAKKEQITEALRILNSDKHVKSILINIFGGIMRCDVVAQGIMDAVREMKLDLPLVVRLEGTNVAKGKEILKSSGLNIIPANDLGDAAKKAVASLKH", "values": [{"measurement": "Km", "value": "145 ± 47", "unit": "µM"}, {"measurement": "kcat", "value": 0.0139, "unit": "s⁻¹"}, {"measurement": "kcat/Km", "value": 96, "unit": "M⁻¹ s⁻¹"}]}]}
